This is an account of results in patent US7838288B2, “Modulators of odorant receptors” (Duke University, priority 2004, dated 2010).

Format in all cases: cell-based, mouse
Assay [1] relates to OR-S6/S79. Put plainly: CRE-luciferase reporter gene assay, OR-S6/S79. The note with it: 293T cells expressing RTP1 variant. On the procedure:
Four ORs (S6/79, S18, S46 and S50) previously assayed using other techniques (see, e.g., Malnic, B., et al. (1999) Cell 96, 713-723; herein incorporated by reference in its entirety) were tested against an assay panel of aliphatic alcohols, aldehydes and acids and some other odorants. Additionally, five “orphan” class I ORs (MOR23-1, MOR31-4, MOR31-6, MOR32-5 and MOR32-11) whose cognate ligands were unknown were tested. At a suprathreshold concentration of 100 uM, all these ORs were odorant selective, responding to only a small subset of the odorants tested (see FIG. 11A). This specificity was retained at lower, more physiologically relevant concentrations. Many of these ORs responded to odorants present in micromolar concentrations. The cell-surface expression of these ORs by living-cell immunofluorescence were evaluated. Some ORs (S18, MOR31-4, MOR31-6 and MOR32-5) were strongly expressed while other ORs (S6, S50, MOR23-1, MOR32-11) were weakly expressed (see FIG. 12). The present invention is not limited to a particular mechanism. Indeed, an understanding of the mechanism is not necessary to practice the present invention. […] Finally, two additional orphan class II ORs, MOR203-1 and olfr62, were tested against a panel of 139 odorants. […] Olfr62 responded to coumarine and piperonal (see FIG. 11C). […] When parental 293T cells for these ORs were used in this luciferase assay, little or no response to the odorants was observed. The present invention is not limited to a particular mechanism. Indeed, an understanding of the mechanism is not necessary to practice the present invention.
An expression system has been established that permits rapid identification of ligands for ORs. This system was tested with twelve ORs. Four of the tested ORs (S6/S79, S18, S46, and S50) were expressed in single olfactory neurons responding to aliphatic odorants (see, e.g., Malnic, B., et al. (1999) Cell 96, 713-723; herein incorporated by reference in its entirety). The response profiles of OR-S50, but not that of OR-S18 agreed with the previous report (see, e.g., Malnic, B., et al. (1999) Cell 96, 713-723; herein incorporated by reference in its entirety). […] In experiments conducted during the course of the present invention, OR-S6/S79 responded to nonanedioic acid but not to heptanoic acid or octanoic acid. The present invention is not limited to a particular mechanism. […] When multiple single olfactory neurons that expressed the same OR were recorded against the same set of odorants using calcium imaging, their response profiles were similar but different (see, e.g., Bozza, T., et al. (2002) J Neurosci 22, 3033-3043; herein incorporated by reference in its entirety).
Dual-Glo system (Promega) for luciferase assay was used. […] Luminescence was measured using Wallac Victor 1420 (Perkin-Elmer). […]

Assay [2] has as its system MOR203-1. The assay can be described thus: Living-cell staining of cell-surface MOR203-1. The settings on record: accessory protein co-transfected in 293T cells. From the text: After hypothesizing that mammalian ORs require accessory protein(s) for functional cell surface expression, a search was instituted for detecting such molecule(s). Long-SAGE (serial analysis of gene expression) libraries (see, e.g., Saha, S., et al., (2002) Nat Biotechnol 20, 508-512; herein incorporated by reference in its entirety) were constructed from single olfactory neurons as well as neurons from the vomeronasal organ and genes were collected that are expressed by these neurons. To identify candidate genes expressed by the olfactory neurons Digital Differential Display (see, e.g., http://www, followed by, .ncbi.nlm.nih.gov/UniGene/info_ddd.shtml) was also used. Candidate genes were investigated for ORFs that encode membrane associated proteins. Genes were selected with similarities to known chaperones and cloned the cDNAs from olfactory epithelium cDNAs. The mRNA expression of each gene was verified by in situ hybridization. After isolating and subcloning into mammalian expression vectors, each cDNA together with a mouse OR (MOR203-1) tagged with a 20 N-terminal amino acids of rhodopsin (Rho-tag), was transfected into 293T cells. We measured whether these clones had any effect on the cell-surface expression of ORs by staining living cells using antibodies against the Rho-tag (see, e.g., Laird, D. W., and Molday, R. S. (1988) Invest Opthalmol Vis Sci 29, 419-428; herein incorporated by reference in its entirety). When MOR203-1 was transfected alone, antibody staining detected only faint cell-surface expression in less than 1% of the cells. A schematic diagram outlining the screening procedure utilized with the present invention is provided at FIG. 1.
(§1) 293T cells were maintained in minimal essential medium containing 10% fetal bovine serum (M10). Lipofectamine 2000 (Invitrogen) was used for transfection. In live-cell staining, 16 hours after transfection, cells were incubated in M10 containing anti rhodopsin antibody, 4D2 (see, e.g., Laird, D. W., and Molday, R. S. (1988) Invest Opthalmol V is Sci 29, 419-428; herein incorporated by reference in its entirety) and 15 mM NaN3 at 4 degrees C. for 1 hour. After washing, cells were incubated with Cy3-conjugated anti mouse IgG (Jackson Immunologicals), washed and mounted. For FACS analysis, 4D2 and PE-conjugated anti mouse IgG (Jackson Immunologicals) were used to monitor the Rho tagged receptor expression. Anti HA rabbit antibodies (Sigma) and Alexa 488 conjugated anti rabbit IgG (Molecular Probes) was used to stain the HA-β2 adrenergic receptor. To establish the Hana3a cells, 1 ug/ml of puromycin was used for selection. 96 colonies were picked and assayed using luciferase assay using OREG.

The subject of assay [3] is 23-1. Put plainly: Living-cell staining of cell-surface 23-1. The settings on record: accessory protein co-transfected in 293T cells. On the procedure:
as §1

B1: RTP1-A1: RTP1 variant from deleting portions of RTP1-A; murine SEQ ID NO: 46, human SEQ ID NO: 47 (protein, listed as Mus musculus)
chain: MCKSVTTGEWKKVFYEKMEEVKPADSWDFIIDPNLKHNVLAPGWKQYLELHASGRFHCSWCWHTWQSPHVVILFHMYLDKAQRAGSVRMRVFKQLCYECGTARLDESSMLEENIESLVDNLITSLREQCYGERGGHYRIHVASRQDNRRHRGEFCEACQEGIVHWKPSEKLLEEEATTYTFSRAPSPTKPQAETGSGCNFCSIPWCLFWATVLMLIIYLQFSFRTSV
Take B1: in assay [1], the “S6 activity as indicated by luciferase expression” value was “Increased enhancement”. The “cell surface expression of MOR203-1” value in assay [2] is reported as “Increased cell-surface staining”. The “cell-surface expression of 23-1” value in assay [3] is listed as “Increased cell-surface staining”.
